For the assay, the target named is LPD-3 (C-terminally tagged, from lpd3::mvenus worms) (C. elegans, UniProt A0A0K3AWP8 1-4022). The experiment in a line: affinity purification with mass spectrometry.

B1: Spigot (natural protein, C. elegans, UniProt Q4W5H0 1-276, looked up)
chain: MRIFVFDGTSVIYVCAVIILILIWVAIIGQRQIWRHRHNVARVRPQVSLSSRISSKKAVLLRETQLDTVMRLRCENQARLTDCISLQFHGEKPYVHRMIAVDEVTLEIDGQLNRIEGAVQRQAGESTYSYLKRIREKVPSIPLNLVHRIAFLQESARFRPEKFDVEQVMELRSLLNQFLRILSAEYDSLSDEPDMAAPRGVIASFYQFGQKIMPNNSGSKRRRNKFGGSDGVRLLMKEREEQLSLLSPLARASADSPAPAAHLRRQSDSHSALLPQ
Regarding B1, the binding result is “binds”.

The values are drawn from doi:10.1101/2024.06.21.600134 (bioRxiv, 2024).
